These results are taken from patent US20220356230A1.

Several values for one entry are separate records, joined by “and”; a condition that tells them apart may be missing. Equal values may be shown once.

The target in test [1] is SARS-CoV-2 Spike Protein (Accession number MN908947.3, amino acids 16-1211) on pseudotyped VSV VLPs (SARS-CoV-2) (UniProt P0DTC2).
Test [2] deals with VLPs expressing VSV only (negative binding control) (vesicular stomatitis virus).
Test [3] concerns the target MERS.mFc (mAb2663-L1) (MERS-CoV) (UniProt K9N5Q8). In words: Luminex bead assay, supernatant.
For test [4], the target named is MERS.hFc (mAb2664-L1) (MERS-CoV) (UniProt K9N5Q8). Nature of the test: Luminex bead assay, supernatant.
The target of test [5] is Bt-MERS.hFc (mAb2664-L2) (MERS-CoV) (UniProt K9N5Q8). In words: Luminex bead assay, supernatant.
Test [6] has as its target SARS-CoV-2 spike protein (S-wt, Wuhan-Hu-1, NCBI Accession Number MN908947.3) on VSV-SARS-CoV-2-S pseudoparticles (SARS-CoV-2) (UniProt P0DTC2). Nature of the test: cell-based or functional assay.

For IgG1 Isotype Control (antibody), in test [1], the Ratio VSV/Spike:VSV was 1 and 2.
Regarding mAb10933 (antibody), the Antibody Binding Signal (RLU) in test [2] is 82 RLU and 29 RLU. For the same substance, the Binding signal (MFI) came to 22 MFI in test [3], 21 MFI in test [4] and 26 MFI in test [5].
The substance mAb10934 (antibody) returned a mAb neutralization potency (IC50 (M)) in test [6] of 5.44e-11 M. In test [3], this substance showed a Binding signal (MFI) of 77 MFI.
In the case of mAb10936 (antibody), the mAb neutralization potency (IC50 (M)) in test [6] stood at 1.11e-10 M. In addition, the results for the Binding signal (MFI) in test [3], in test [4] and in test [5] were 32 MFI, 26 MFI and 32 MFI, respectively.
In test [6], mAb10987 (antibody) had a mAb neutralization potency (IC50 (M)) of 4.06e-11 M.
